This note sets out measurements from patent US20240190947A1 (BIO TECHNE, published 2024).

For the assay, the target named is T1, SARS-CoV-2 S1 RBD His-tagged protein (SARS-CoV-2, UniProt P0DTC2 319-541).
T1 construct: domain: S1 RBD; also called rSARS-CoV-2 S1 RBD; SARS-CoV2 RBD
Put plainly: direct ELISA, HEK293 transfection medium. For orientation: In an ELISA, binding on a coated surface is turned into a signal by an enzyme label.

B1: 70009-2 VHH clone (VHH)
VHH: QLQLVESGGGLVQPGGSLRLSCAASTLTLNSYAIGWFRQAPGKEREAVSCTSSSGDMTYYTNSVKGRFTISRDNAKNTVYLQMSRLKPDDTAVYYCAAVLLEYGYVCSHPNEYDYWGQGTQVTVSS
As to B1, the binding result is listed as “binds”.
